Tested on: MS2 coat protein
Test: apparent KD of MS2 coat protein; designed switch direction (-1 OFF switch, 1 ON switch): -1; higher = weaker reporter binding
Outline: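 Normalised cluster fluorescence was curve-fitted, and each design's median over clusters is its apparent KD. Before this, SNAP-549-labelled MS2 coat protein was titrated from 0.7 or 1.5 nM, doubling to 3 µM, over RNA switches transcribed on Illumina chips by stalled E. coli RNA polymerase. Titrations had no input, 200 uM small-molecule ligand, or an oligonucleotide input, and steps lasted 0.8–1.5 h (lowest) to 10–20 min (highest).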

[1] = input ligand: microRNA oligo, concentration not stated
[2] = Eterna round: R95, input ligand: FMN 200 uM
[3] = Eterna round: R95, input ligand: microRNA oligo, concentration not stated
[4] = Eterna round: R95, input ligand: none

Sequence	apparent KD of MS2 coat protein [3] [nM]	apparent KD of MS2 coat protein (input ligand: FMN 200 uM) [nM]	apparent KD of MS2 coat protein (input ligand: none) [nM]	other results
UUUGUUUUGGUAGGAUAUACUUUUAAUUUCUCUUUCCUUACAUGAGGAUCACCCAUGUUUACAUUGUAGAAGGACCACUUUGUU [JR_ExcNG2_Sub050] (Eterna round: R96, puzzle: Exclusion NG 2)				apparent KD of MS2 coat protein [1]: 15.9 nM
UUUUAACAUGAGGAUCACCCAUGUCAGGAUAUGCUAUUUUUUUUUUUUUUUUUUUUUUGCAGAAGGGACAUUUU [My solution] (puzzle: Exclusion 1)	29.4			apparent KD of MS2 coat protein [2]: 78.5 nM; apparent KD of MS2 coat protein [4]: 55.7 nM
UUUUAACAUGAGGAUCACCCAUGUGAGGAUAUCGAAAUUUAUAUUAAUAUUUAUUUAUCGAGAAGGCACAUUUU [JMF 64] (puzzle: Exclusion 1)	120			
UUUUAACAUGAGGAUCACCCAUGUGAGGAUAUCGAAAUUUAUAUUAAUAUUUUUAUUACGAGAAGGCACAUUUU [JMF 74] (puzzle: Exclusion 1)	70.5			
UUUUAACAUGAGGAUCACCCAUGUGAGGAUAUCGAAAUUUAUAUUUAUAUUAAUUUUACGAGAAGGCACAUUUU [JMF 90] (puzzle: Exclusion 1)	120			
UUUUAACAUGAGGAUCACCCAUGUGAGGAUAUCGAAAUUUAUAUUUAUAUUAAUUUUUCGAGAAGGCACAUUUU [JMF 89] (puzzle: Exclusion 1)	177			
UUUUAACAUGAGGAUCACCCAUGUGAGGAUAUCGAAAUUUAUAUUUAUAUUUAUAAUUCGAGAAGGCACAUUUU [JMF 93] (puzzle: Exclusion 1)	181			
UUUUAACAUGAGGAUCACCCAUGUGAGGAUAUCGAAAUUUAUAUUUAUAUUUAUAUAACGAGAAGGCACAUUUU [JMF 95] (puzzle: Exclusion 1)	68.3			
UUUUAACAUGAGGAUCACCCAUGUGAGGAUAUCGAAAUUUAUAUUUAUAUUUAUUAAUCGAGAAGGCACAUUUU [JMF 100] (puzzle: Exclusion 1)	121			
UUUUAACAUGAGGAUCACCCAUGUGAGGAUAUCGUAUUUUUUAUUAAUAUUAAUAAAACGAGAAGGCACAUUUU [JMF 17] (Eterna round: R96, puzzle: Exclusion 1)		96.9	65.5	apparent KD of MS2 coat protein [1]: 51.4 nM
UUUUAACAUGAGGAUCACCCAUGUGAGGAUAUCGUAUUUUUUAUUAAUAUUAAUAAAACGAGAAGGCACAUUUU [JMF 17] (puzzle: Exclusion 1)	86.1			
UUUUAACAUGAGGAUCACCCAUGUGAGGAUAUGCUAUUUUUUUUUUUUUUUUUUUUUUGCAGAAGGCACAUUUU [My solution] (puzzle: Exclusion 1)	526			apparent KD of MS2 coat protein [2]: 12.5 nM; apparent KD of MS2 coat protein [4]: 26 nM
UUUUAAUAUGAAGGAUAUACUUAACAUGAGGAUCACCCAUGUGGUGUUGUGAGUGAGUGAGUUUAGUAGAAGGUCAAGUAUUUU [JMF's solution 47] (Eterna round: R96, puzzle: Exclusion NG 2)		703	428	apparent KD of MS2 coat protein [1]: 559 nM
UUUUAAUAUGAAGGAUAUACUUAACAUGAGGAUCACCCAUGUGGUGUUGUGAGUGAGUGAGUUUAGUAGAAGGUCAAUUCUUUU [JMF's solution 89] (Eterna round: R96, puzzle: Exclusion NG 2)		563	366	apparent KD of MS2 coat protein [1]: 442 nM
UUUUACAUGCUGAGAUCCUACAUGAGGAUCACCCAUGUGGUCCGGUGACUUUUGUCACCGGACUUAGCUCGUCUUGU [salish99_S_TOV1_R5_100] (Eterna round: R97, puzzle: Sensor, turn-off variant 1)		191	288	
UUUUACGGAGGAUAUACAUUUUUUUUAUUAUCCUCAUUAUUACAUGAGGAUCACCCAUGUAGAAGGCCGAUUUU [My Design] (puzzle: Exclusion 2)	59.1			
UUUUACUGAGGAUAUACAUUUUUUUAUUUAUUUAUAAUAUUACAUGAGGAUCACCCAUGUAGAAGGCAGAUUUU [My Design] (puzzle: Exclusion 2)	26.7			
UUUUAGAGAGGAUAUAUAAUGUGAAACAUGAGGAUCACCCAUGUAAUAUUAUGGAUGUAAAUAGAAGGCUCAUUUA [JL-ex5-3.04] (puzzle: Exclusion 5)	36.1			apparent KD of MS2 coat protein [2]: 31.9 nM; apparent KD of MS2 coat protein [4]: 35.1 nM
UUUUAGCAAGCUAUUAUUAACAUGAGGAUCACCCAUGUGCAUCCAAAAUUACUUUUAGAUCUUGCUCGUCUUAUAUA [JR_STOV1_v2_Sub084] (Eterna round: R97, puzzle: Sensor, turn-off variant 1)		1260	1600	
UUUUAGCGAGGAUAUACAUUUUUUUUAUUAUCCUCAUUAUUACAUGAGGAUCACCCAUGUAGAAGGCGCAUUUU [My Design] (puzzle: Exclusion 2)	48.9			
UUUUAGGGAGGAUAUACAUUUUUUUUAUUAUCCUCAUUAUUACAUGAGGAUCACCCAUGUAGAAGGCCCAUUUU [My Design] (puzzle: Exclusion 2)	84			
UUUUAGUAAGGAUAUGAUUAGAUCUACUUCGGUAGAUCUAAUCAGAAGGUACAUGAGGAUCACCCAUGUAGAUU [Mod of Brourd 2 - Jieux - Exclusion 4] (Eterna round: R97, puzzle: Exclusion 4)		24.1	18.8	
UUUUAUUGCAAGGAUAUGCAAUUUAUUAUUUAUGCAGAAGGUGCUACAUGAGGAUCACCCAUGUUUCUGGGUUU [JR_E6_Sub044] (puzzle: Exclusion 6)	91.8			apparent KD of MS2 coat protein [2]: 253 nM; apparent KD of MS2 coat protein [4]: 86.7 nM
UUUUCUCACGUCAGGAUAUGCUAAAAGGUGACAAGGUAGAAGGGACAUGAGGAUCACCCAUGUGCUUUCAUGAG [Eternabot (L2) Solution 41] (Eterna round: R97, puzzle: Brourd's mod of Exclusion 4)		15.2	13.8	
UUUUGAAAGUGAGGAUAUGACAUGAGGAUCACCCAUGUAAAGGGAGUUGAAUAUAUAGAAAGAUAUCAGAAGGCACAAAUGUUU [JR_ExcNG2_Sub001] (Eterna round: R96, puzzle: Exclusion NG 2)				apparent KD of MS2 coat protein [1]: 115 nM
UUUUGAUAUGAAGGAUAUACUUAACAUGAGGAUCACCCAUGUGGUGUUGUGAGUGAGUGAGUUUAGUAGAAGGUCAAUUAUUUU [JMF's solution 26] (Eterna round: R96, puzzle: Exclusion NG 2)		470	303	apparent KD of MS2 coat protein [1]: 293 nM
UUUUGGCAUGUAGGAUAUGGGUCCGAUUAGGAUUUAGAAGGACAUGAGGAUCACCCAUGUGCAUUUAAUUGGUCUUUAUUUUUU [EXclNG1-LROPPY14] (Eterna round: R96, puzzle: Exclusion NG 1)				apparent KD of MS2 coat protein [1]: 62.3 nM
UUUUGGCAUGUAGGAUAUGGGUCCGAUUAGGAUUUAGAAGGACAUGAGGAUCACCCAUGUGCCCUUAAUUGGUCUUUUUUUUUU [EXclNG1-LROPPY17] (Eterna round: R96, puzzle: Exclusion NG 1)		55.8	44.4	apparent KD of MS2 coat protein [1]: 35.3 nM
UUUUGGUAAGGAUAUGAAUCGAUCUCGGAAACGAGAUCGAUUCAGAAGGUACAUGAGGAUCACCCAUGUUGAUU [Mod of Brourd 7 - Jieux - Exclusion 4] (Eterna round: R97, puzzle: Exclusion 4)		119	26	
